These results are taken from article PMC4963209 (2016).

The target of this assay is T1, Juno (UniProt Q9EQF4 20-222).
T1 chain: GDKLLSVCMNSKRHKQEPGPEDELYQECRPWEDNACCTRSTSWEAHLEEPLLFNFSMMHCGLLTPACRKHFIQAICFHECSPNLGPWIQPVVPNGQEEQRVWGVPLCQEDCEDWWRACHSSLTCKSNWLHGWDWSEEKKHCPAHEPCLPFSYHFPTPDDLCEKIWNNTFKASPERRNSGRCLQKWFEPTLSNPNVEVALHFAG
Briefly: MST.

B1: Izumo1 ectodomain (domain or fragment)
chain: CIKCDQFVTDALKTFENTYLNDHLPHDIHKNVMRMVNHEVSSFGVVTSAEDSYLGAVDENTLEQATWSFLKDLKRITDSDLKGELFIKELLWMLRHQKDIFNNLARQFQKEVLCPNKCGVMSQTLIWCLKCEKQLHICRKSLDCGERHIEVHRSEDLVLDCLLSWHRASKGLTDYSFYRVWENSSETLIAKGKEPYLTKSMVGPEDAGNYRCVLDTINQGHATVIRYDVTVLPPKHSEENQPPNIITQEEHETPVHVTPQTPPGQEPESELYPELHPELYPELIPTVAQNPEKKMKTR
modifications: N-acetylglucosamine attached to N204 (seen in the crystal structure)
Consider B1, for which the affinity, expressed as Kd, was 620 nM.
